Bridge positions count the residues as written; N and C are the ends. Square brackets hold non-standard residues; d marks the D form. Orn = NCCC[C@H](N)C(=O)O; Dab = NCC[C@H](N)C(=O)O
Target: human melanocortin-4 receptor (recombinant hMC4-R) (human), P32245
Test: competition with labelled NDP-α-MSH ([I125] or Eu), hMC4-R HEK-293 membranes
Details: remark: other sources report otherwise

Sequence of human melanocortin-4 receptor (recombinant hMC4-R) (human), P32245 (P32245 whole entry): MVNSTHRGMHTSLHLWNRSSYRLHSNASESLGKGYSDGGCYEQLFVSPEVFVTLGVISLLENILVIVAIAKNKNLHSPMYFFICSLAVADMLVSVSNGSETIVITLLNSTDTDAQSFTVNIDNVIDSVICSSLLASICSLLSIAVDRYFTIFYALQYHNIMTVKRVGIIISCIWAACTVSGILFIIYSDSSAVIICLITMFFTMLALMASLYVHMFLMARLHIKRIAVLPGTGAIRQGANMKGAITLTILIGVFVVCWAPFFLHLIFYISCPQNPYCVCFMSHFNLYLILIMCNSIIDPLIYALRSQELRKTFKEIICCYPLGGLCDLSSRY

Ki | Binder
7 nM | Ac-RD[Orn][dF]RWK-NH2 (lactam 2-7) [Asp...Lys analog of peptide No. 8: Ac-Arg-cyclo(Asp-Orn-D-Phe-Arg-Trp-Lys)-NH2]
33 nM | Ac-RD[Dab](Ac)[dF]RWK-NH2 (lactam 2-7; SMILES CC(=O)NCC[C@@H]1NC(=O)[C@@H](NC(=O)[C@H](CCCNC(=N)N)NC(C)=O)CC(=O)NCCCC[C@@H](C(N)=O)NC(=O)[C@H](Cc2c[nH]c3ccccc23)NC(=O)[C@H](CCCNC(=N)N)NC(=O)[C@@H](Cc2ccccc2)NC1=O) [Asp...Lys analog of peptide No. 18: Ac-Arg-cyclo(Asp-Dab(Acetyl)-D-Phe-Arg-Trp-Lys)-NH2]
573 nM | Ac-RD[Orn](Ac)[dF]RWK-NH2 (lactam 2-7) [Asp...Lys analog of peptide No. 33: Ac-Arg-cyclo(Asp-Orn(Acetyl)-D-Phe-Arg-Trp-Lys)-NH2]

More lines, now with the values behind:

Binder | Ki
Ac-RD[Dab][dF]RWK-NH2 (lactam 2-7) [Asp...Lys analog of peptides No. 6 and No. 43: Ac-Arg-cyclo(Asp-Dab-D-Phe-Arg-Trp-Lys)-NH2] | 4 nM
Ac-RD[Orn][dF]RWK-OH (lactam 2-7) [Asp...Lys analog of peptide No. 7: Ac-Arg-cyclo(Asp-Orn-D-Phe-Arg-Trp-Lys)-OH] | 18 nM
Ac-RD[Dab][dF]RWK-OH (lactam 2-7) [Asp...Lys analog of peptides No. 5 and No. 42: Ac-Arg-cyclo(Asp-Dab-D-Phe-Arg-Trp-Lys)-OH] | 56 nM

— patent publication US20120077957A1, “Lactam-Bridged Melanocortin Receptor-Specific Peptides” (PALATIN TECHNOLOGIES, INC., priority 2009, published 2012)
